Data reported in article PMC2515342.

Experiments:
[1] = biological target: apo-hemoglobin (hemoglobin lacking heme) (bovine) (UniProt P01966); assay: SPR
[2] = biological target: hemoglobin (with bound heme) (bovine) (UniProt P01966); assay: SPR

Substance: IsdX1 (GST removed with thrombin) (domain or fragment)
- Kd [1]: 9.43 mM
- Kd [2]: 0.00733 mM
